According to the supplement of paper PMC5998384:

How the values were obtained:
[1] = tested on: HeLa Kyoto; assay: melting temperature (median over replicates), in situ; higher = more thermally stable
[2] = tested on: HeLa Kyoto; assay: solubility in G1/S (NP-40 vs SDS abundance) (log2 ratio); higher = more soluble; conditions: cell cycle stage: G1/S
[3] = tested on: HeLa Kyoto; assay: solubility change mitosis vs G1/S (difference of NP-40 vs SDS log2 ratios) (log2 ratio difference); higher = more soluble in mitosis
[4] = tested on: HeLa Kyoto; assay: thermal stability score vs G1/S (z-score of summed log2 fold changes over temperatures); higher = more thermally stable than in G1/S
[5] = cell cycle stage: early G1 (4.5 h after nocodazole release)
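Throughout, for melting temperature (median over replicates), in situ: HeLa Kyoto cells synchronized by double thymidine or nocodazole block, proteins quantified by TMT10plex mass spectrometry, three independent biological replicates.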
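Throughout, for solubility change mitosis vs G1/S (difference of NP-40 vs SDS log2 ratios): synchronized HeLa Kyoto cells (double thymidine block for G1/S, nocodazole release for mitosis), protein amounts in NP-40 versus SDS lysates quantified by mass spectrometry, three biological replicates.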
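Throughout, for solubility in G1/S (NP-40 vs SDS abundance): HeLa Kyoto cells arrested at G1/S by double thymidine block, proteins quantified by TMT10plex mass spectrometry in mild NP-40 versus SDS extracts, three biological replicates.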
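Throughout, for thermal stability score vs G1/S (z-score of summed log2 fold changes over temperatures): synchronized HeLa Kyoto cells, proteins quantified by TMT10plex mass spectrometry, three biological replicates, mitosis taken 0.5 h after nocodazole release, G1/S directly after double thymidine block.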

Sequence of IDH3B (chain, as listed by the source): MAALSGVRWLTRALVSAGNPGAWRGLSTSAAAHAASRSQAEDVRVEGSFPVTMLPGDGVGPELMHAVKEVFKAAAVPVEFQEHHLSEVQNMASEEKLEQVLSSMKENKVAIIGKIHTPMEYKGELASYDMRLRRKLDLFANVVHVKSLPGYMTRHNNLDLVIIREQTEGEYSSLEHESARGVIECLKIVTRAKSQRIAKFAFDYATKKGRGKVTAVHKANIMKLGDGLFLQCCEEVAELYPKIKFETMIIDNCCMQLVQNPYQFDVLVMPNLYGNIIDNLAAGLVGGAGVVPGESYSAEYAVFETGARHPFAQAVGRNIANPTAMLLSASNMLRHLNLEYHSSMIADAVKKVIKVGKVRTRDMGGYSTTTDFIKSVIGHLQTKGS

Substance	melting temperature ([1]; cell cycle stage: G1/S)	melting temperature ([1]; cell cycle stage: mitosis)	solubility in G1/S (log2) [2]	solubility change mitosis (log2) [3]	thermal stability score [4, 5]	thermal stability score ([4]; cell cycle stage: mitosis)
MMRLRGSGMLRDLLLRSPAGVSATLRRAQPLVTLCRRPRGGGRPAAGPAAAARLHPWWGGGGWPAEPLARGLSSSPSEILQELGKGSTHPQPGVSPPAAPAAPGPKDGPGETDAFGNSEGKELVASGENKIKQGLLPSLEDLLFYTIAEGQEKIPVHKFITALKSTGLRTSDPRLKECMDMLRLTLQTTSDGVMLDKDLFKKCVQSNIVLLTQAFRRKFVIPDFMSFTSHIDELYESAKKQSGGKVADYIPQLAKFSPDLWGVSVCTVDGQRHSTGDTKVPFCLQSCVKPLKYAIAVNDLGTEYVHRYVGKEPSGLRFNKLFLNEDDKPHNPMVNAGAIVVTSLIKQGVNNAEKFDYVMQFLNKMAGNEYVGFSNATFQSERESGDRNFAIGYYLKEKKCFPEGTDMVGILDFYFQLCSIEVTCESASVMAATLANGGFCPITGERVLSPEAVRNTLSLMHSCGMYDFSGQFAFHVGLPAKSGVAGGILLVVPNVMGMMCWSPPLDKMGNSVKGIHFCHDLVSLCNFHNYDNLRHFAKKLDPRREGGDQRVKSVINLLFAAYTGDVSALRRFALSAMDMEQRDYDSRTALHVAAAEGHVEVVKFLLEACKVNPFPKDRWNNTPMDEALHFGHHDVFKILQEYQVQYTPQGDSDNGKENQTVHKNLDGLL	49.7 °C	50.4 °C	0.0237	-0.0383	0.55	2.21
MAEGERQPPPDSSEEAPPATQNFIIPKKEIHTVPDMGKWKRSQAYADYIGFILTLNEGVKGKKLTFEYRVSEMWNEVHEEKEQAAKQSVSCDECIPLPRAGHCAPSEAIEKLVALLNTLDRWIDETPPVDQPSRFGNKAYRTWYAKLDEEAENLVATVVPTHLAAAVPEVAVYLKESVGNSTRIDYGTGHEAAFAAFLCCLCKIGVLRVDDQIAIVFKVFNRYLEVMRKLQKTYRMEPAGSQGVWGLDDFQFLPFIWGSSQLIDHPYLEPRHFVDEKAVNENHKDYMFLECILFITEMKTGPFAEHSNQLWNISAVPSWSKVNQGLIRMYKAECLEKFPVIQHFKFGSLLPIHPVTSG [PPP2R4]	53.8 °C	53.8 °C	0.247	-0.119	2.14	2.26
MKPKLMYQELKVPAEEPANELPMNEIEAWKAAEKKARWVLLVLILAVVGFGALMTQLFLWEYGDLHLFGPNQRPAPCYDPCEAVLVESIPEGLDFPNASTGNPSTSQAWLGLLAGAHSSLDIASFYWTLTNNDTHTQEPSAQQGEEVLRQLQTLAPKGVNVRIAVSKPSGPQPQADLQALLQSGAQVRMVDMQKLTHGVLHTKFWVVDQTHFYLGSANMDWRSLTQVKELGVVMYNCSCLARDLTKIFEAYWFLGQAGSSIPSTWPRFYDTRYNQETPMEICLNGTPALAYLASAPPPLCPSGRTPDLKALLNVVDNARSFIYVAVMNYLPTLEFSHPHRFWPAIDDGLRRATYERGVKVRLLISCWGHSEPSMRAFLLSLAALRDNHTHSDIQVKLFVVPADEAQARIPYARVNHNKYMVTERATYIGTSNWSGNYFTETAGTSLLVTQNGRGGLRSQLEAIFLRDWDSPYSHDLDTSADSVGNACRLL [PLD3]	55.7 °C	55.3 °C	0.309	-0.0637	-2.87	-4.26
MLTNLRIFAMSHQTIPSVYINNICCYKIRASLKRLKPHVPLGRNCSSLPGLIGNDIKSLHSIINPPIAKIRNIGIMAHIDAGKTTTTERILYYSGYTRSLGDVDDGDTVTDFMAQERERGITIQSAAVTFDWKGYRVNLIDTPGHVDFTLEVERCLRVLDGAVAVFDASAGVEAQTLTVWRQADKHNIPRICFLNKMDKTGASFKYAVESIREKLKAKPLLLQLPIGEAKTFKGVVDVVMKEKLLWNCNSNDGKDFERKPLLEMNDPELLKETTEARNALIEQVADLDDEFADLVLEEFSENFDLLPAEKLQTAIHRVTLAQTAVPVLCGSALKNKGIQPLLDAVTMYLPSPEERNYEFLQWYKDDLCALAFKVLHDKQRGPLVFMRIYSGTIKPQLAIHNINGNCTERISRLLLPFADQHVEIPSLTAGNIALTVGLKHTATGDTIVSSKSSALAAARRAEREGEKKHRQNNEAERLLLAGVEIPEPVFFCTIEPPSLSKQPDLEHALKCLQREDPSLKVRLDPDSGQTVLCGMGELHIEIIHDRIKREYGLETYLGPLQVAYRETILNSVRATDTLDRTLGDKRHLVTVEVEARPIETSSVMPVIEFEYAESINEGLLKVSQEAIENGIHSACLQGPLLGSPIQDVAITLHSLTIHPGTSTTMISACVSRCVQKALKKADKQVLEPLMNLEVTVARDYLSPVLADLAQRRGNIQEIQTRQDNKVVIGFVPLAEIMGYSTVLRTLTSGSATFALELSTYQAMNPQDQNTLLNRRSGLT [GFM2]	49.2 °C	49.3 °C	-0.0849	-0.0596	1.87	1.26
MYAVYKQAHPPTGLEFSMYCNFFNNSERNLVVAGTSQLYVYRLNRDAEALTKNDRSTEGKAHREKLELAASFSFFGNVMSMASVQLAGAKRDALLLSFKDAKLSVVEYDPGTHDLKTLSLHYFEEPELRDGFVQNVHTPRVRVDPDGRCAAMLVYGTRLVVLPFRRESLAEEHEGLVGEGQRSSFLPSYIIDVRALDEKLLNIIDLQFLHGYYEPTLLILFEPNQTWPGRVAVRQDTCSIVAISLNITQKVHPVIWSLTSLPFDCTQALAVPKPIGGVVVFAVNSLLYLNQSVPPYGVALNSLTTGTTAFPLRTQEGVRITLDCAQATFISYDKMVISLKGGEIYVLTLITDGMRSVRAFHFDKAAASVLTTSMVTMEPGYLFLGSRLGNSLLLKYTEKLQEPPASAVREAADKEEPPSKKKRVDATAGWSAAGKSVPQDEVDEIEVYGSEAQSGTQLATYSFEVCDSILNIGPCANAAVGEPAFLSEEFQNSPEPDLEIVVCSGHGKNGALSVLQKSIRPQVVTTFELPGCYDMWTVIAPVRKEEEDNPKGEGTEQEPSTTPEADDDGRRHGFLILSREDSTMILQTGQEIMELDTSGFATQGPTVFAGNIGDNRYIVQVSPLGIRLLEGVNQLHFIPVDLGAPIVQCAVADPYVVIMSAEGHVTMFLLKSDSYGGRHHRLALHKPPLHHQSKVITLCLYRDLSGMFTTESRLGGARDELGGRSGPEAEGLGSETSPTVDDEEEMLYGDSGSLFSPSKEEARRSSQPPADRDPAPFRAEPTHWCLLVRENGTMEIYQLPDWRLVFLVKNFPVGQRVLVDSSFGQPTTQGEARREEATRQGELPLVKEVLLVALGSRQSRPYLLVHVDQELLIYEAFPHDSQLGQGNLKVRFKKVPHNINFREKKPKPSKKKAEGGGAEEGAGARGRVARFRYFEDIYGYSGVFICGPSPHWLLVTGRGALRLHPMAIDGPVDSFAPFHNVNCPRGFLYFNRQGELRISVLPAYLSYDAPWPVRKIPLRCTAHYVAYHVESKVYAVATSTNTPCARIPRMTGEEKEFETIERDERYIHPQQEAFSIQLISPVSWEAIPNARIELQEWEHVTCMKTVSLRSEETVSGLKGYVAAGTCLMQGEEVTCRGRILIMDVIEVVPEPGQPLTKNKFKVLYEKEQKGPVTALCHCNGHLVSAIGQKIFLWSLRASELTGMAFIDTQLYIHQMISVKNFILAADVMKSISLLRYQEESKTLSLVSRDAKPLEVYSVDFMVDNAQLGFLVSDRDRNLMVYMYLPEAKESFGGMRLLRRADFHVGAHVNTFWRTPCRGATEGLSKKSVVWENKHITWFATLDGGIGLLLPMQEKTYRRLLMLQNALTTMLPHHAGLNPRAFRMLHVDRRTLQNAVRNVLDGELLNRYLYLSTMERSELAKKIGTTPDIILDDLLETDRVTAHF [CPSF1]	50.3 °C	50.6 °C	-0.464	0.129	-0.361	0.307
IDH3B	54.2 °C	53.5 °C	0.298	-0.00994	-1.39	-2
MAARQAVGSGAQETCGLDRILEALKLLLSPGGSGSSSLQVTKHDVLLATLKSNLSALEDKFLKDPQWKNLKLLRDEIADKAEWPQNSVDVTWSFTSQTLLLLLCLKETMIRLAANFNPGKPNPRTPEVAPALSPDALSISQQKTVQFVLQFVVTLGICPYLMPGVGVPLRYRTEFGAVVQDVVCFDAAPDATRRLYTSCKALLNVAQHTSLGSLIFCHHFGDIAAGLCQLGFCPTKRKLLTPAEEVLTEEERTLSRGALRDMLDQVYQPLAVRELLILQGGPPQSCTDVKTQMRCRAPAWLRRLCGQLLSERLMRPNGVQAVVRGILEGAGAGAAGGSDAEVTAADWKKCDLIAKILASCPQQSLSPENYYRDICPQVLDLFHFQDKLTARQFQRVATTTFITLSRERPHLAAKYLLQPVLAPLHRCLNTAELSESDMVPGTILVTEEELSRCIEDVFKVYVVGNEPLTVLMDSLLPVLGVLFLLYCFTKQSVSHIRSLCQEILLWILGKLERKKAIASLKGFAGLDKAVPSLHSLCQFRVATQGGIMITIKEAISDEDEDEALYQKVSSEQGRVEHLGDLLSHCQECGLAGDFFIFCLKELTHVASENETELKTEPFSSKSLLELEQHQTLLVEGQERKLLVLQLMAVLCERMSEQIFTNVTQVVDFVAATLQRACASLAHQAESTVESQTLSMSMGLVAVMLGGAVQLKSSDFAVLKQLLPLLEKVSNTYPDPVIQELAVDLRITISTHGAFATEAVSMAAQSTLNRKDLEGKIEEQQQTSHERPTDVAHSHLEQQQSHETAPQTGLQSNAPIIPQGVNEPSTTTSQKSGSVTTEQLQEVLLSAYDPQIPTRAAALRTLSHWIEQREAKALEMQEKLLKIFLENLEHEDTFVYLSAIQGVALLSDVYPEKILPDLLAQYDSSKDKHTPETRMKVGEVLMRIVRALGDMVSKYREPLIHTFLRGVRDPDGAHRASSLANLGELCQRLDFLLGSVVHEVTACLIAVAKTDGEVQVRRAAIHVVVLLLRGLSQKATEVLSAVLKDLYHLLKHVVCLEPDDVAKLHAQLALEELDDIMKNFLFPPQKLEKKIMVLP [TANGO6]	50.6 °C	50.3 °C	-0.171	-0.193	0.0292	0.767
MNIDDKLEGLFLKCGGIDEMQSSRTMVVMGGVSGQSTVSGELQDSVLQDRSMPHQEILAADEVLQESEMRQQDMISHDELMVHEETVKNDEEQMETHERLPQGLQYALNVPISVKQEITFTDVSEQLMRDKKQIREPVDLQKKKKRKQRSPAKILTINEDGSLGLKTPKSHVCEHCNAAFRTNYHLQRHVFIHTGEKPFQCSQCDMRFIQKYLLQRHEKIHTGEKPFRCDECGMRFIQKYHMERHKRTHSGEKPYQCEYCLQYFSRTDRVLKHKRMCHENHDKKLNRCAIKGGLLTSEEDSGFSTSPKDNSLPKKKRQKTEKKSSGMDKESALDKSDLKKDKNDYLPLYSSSTKVKDEYMVAEYAVEMPHSSVGGSHLEDASGEIHPPKLVLKKINSKRSLKQPLEQNQTISPLSTYEESKVSKYAFELVDKQALLDSEGNADIDQVDNLQEGPSKPVHSSTNYDDAMQFLKKKRYLQAASNNSREYALNVGTIASQPSVTQAAVASVIDESTTASILESQALNVEIKSNHDKNVIPDEVLQTLLDHYSHKANGQHEISFSVADTEVTSSISINSSEVPEVTPSENVGSSSQASSSDKANMLQEYSKFLQQALDRTSQNDAYLNSPSLNFVTDNQTLPNQPAFSSIDKQVYATMPINSFRSGMNSPLRTTPDKSHFGLIVGDSQHSFPFSGDETNHASATSTQDFLDQVTSQKKAEAQPVHQAYQMSSFEQPFRAPYHGSRAGIATQFSTANGQVNLRGPGTSAEFSEFPLVNVNDNRAGMTSSPDATTGQTFG [ZNF148]	51.6 °C	51.1 °C	-0.236	0.123	1.13	-1.33
